Tests used:
[1] = test system: SEQ ID NO 18001
[2] = test system: SEQ ID NO 17995
[3] = test system: SEQ ID NO 18002
[4] = test system: SEQ ID NO 17997
[5] = test system: SEQ ID NO 18000
[6] = test system: SEQ ID NO 17999
[7] = test system: SEQ ID NO 17996
[8] = test system: SEQ ID NOs: 17202-17993
[9] = test system: SEQ ID NO 17994
[10] = test system: SEQ ID NOs: 5-17201
[11] = test system: SEQ ID NO 17998
[12] = test system: SEQ ID NO 18003
[13] = test system: SEQ ID NOs: 5-3204
[14] = test system: SEQ ID NO 17203
[15] = test system: SEQ ID NO 17202

Chain of Recombinant Mouse u-Plasminogen Activator/Urokinase (chain, as listed by the source): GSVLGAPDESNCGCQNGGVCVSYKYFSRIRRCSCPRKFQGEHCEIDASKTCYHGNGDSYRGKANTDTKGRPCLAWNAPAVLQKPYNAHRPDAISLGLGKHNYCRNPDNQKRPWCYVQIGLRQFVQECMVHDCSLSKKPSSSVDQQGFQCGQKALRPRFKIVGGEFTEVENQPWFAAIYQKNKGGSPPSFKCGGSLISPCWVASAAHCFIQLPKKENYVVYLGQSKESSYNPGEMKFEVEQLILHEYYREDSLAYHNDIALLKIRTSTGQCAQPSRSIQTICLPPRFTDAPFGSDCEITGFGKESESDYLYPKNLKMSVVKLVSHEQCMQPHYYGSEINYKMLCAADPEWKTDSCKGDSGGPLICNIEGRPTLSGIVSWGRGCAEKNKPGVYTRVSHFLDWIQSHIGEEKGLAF

Recombinant Human u-Plasminogen Activator/Urokinase
cleavage ratio (PAR) on peptide array, human uPA 1000 nM [1]: showed higher cleavage ratios than the sequence shown as SEQ ID NO: 3 for both the cleavages by human uPA and human MT-SP1
cleavage ratio (PAR) on peptide array, human uPA 1000 nM [2]: showed higher cleavage ratios than the sequence shown as SEQ ID NO: 3 for both the cleavages by human uPA and human MT-SP1
cleavage ratio (PAR) on peptide array, human uPA 1000 nM [3]: showed higher cleavage ratios than the sequence shown as SEQ ID NO: 3 for both the cleavages by human uPA and human MT-SP1
cleavage ratio (PAR) on peptide array, human uPA 1000 nM [4]: showed higher cleavage ratios than the sequence shown as SEQ ID NO: 3 for both the cleavages by human uPA and human MT-SP1
cleavage ratio (PAR) on peptide array, human uPA 1000 nM [5]: showed higher cleavage ratios than the sequence shown as SEQ ID NO: 3 for both the cleavages by human uPA and human MT-SP1
cleavage ratio (PAR) on peptide array, human uPA 1000 nM [6]: showed higher cleavage ratios than the sequence shown as SEQ ID NO: 3 for both the cleavages by human uPA and human MT-SP1
cleavage ratio (PAR) on peptide array, human uPA 1000 nM [7]: showed higher cleavage ratios than the sequence shown as SEQ ID NO: 3 for both the cleavages by human uPA and human MT-SP1
cleavage ratio (PAR) on peptide array, human uPA 1000 nM [8]: showed higher cleavage ratios than the sequence shown as SEQ ID NO: 3 for both the cleavages by human uPA and human MT-SP1
cleavage ratio (PAR) on peptide array, human uPA 1000 nM [9]: showed higher cleavage ratios than the sequence shown as SEQ ID NO: 3 for both the cleavages by human uPA and human MT-SP1
cleavage ratio (PAR) on peptide array, human uPA 1000 nM [10]: showed higher cleavage ratios than the sequence shown as SEQ ID NO: 2 for both the cleavages by human uPA and human MT-SP1
cleavage ratio (PAR) on peptide array, human uPA 1000 nM [11]: showed higher cleavage ratios than the sequence shown as SEQ ID NO: 3 for both the cleavages by human uPA and human MT-SP1
cleavage ratio (PAR) on peptide array, human uPA 1000 nM [12]: showed higher cleavage ratios than the sequence shown as SEQ ID NO: 3 for both the cleavages by human uPA and human MT-SP1

Recombinant Mouse u-Plasminogen Activator/Urokinase
cleavage ratio (PAR) on peptide array, mouse uPA 1000 nM [2]: also showed higher cleavage ratios for mouse uPA than the sequence shown as SEQ ID NO: 3
cleavage ratio (PAR) on peptide array, mouse uPA 1000 nM [4]: also showed higher cleavage ratios for mouse uPA than the sequence shown as SEQ ID NO: 3
cleavage ratio (PAR) on peptide array, mouse uPA 1000 nM [6]: also showed higher cleavage ratios for mouse uPA than the sequence shown as SEQ ID NO: 3
cleavage ratio (PAR) on peptide array, mouse uPA 1000 nM [13]: showed higher cleavage ratios than the sequence shown as SEQ ID NO: 2 for all the cleavages by human uPA, human MT-SP1, and mouse uPA
cleavage ratio (PAR) on peptide array, mouse uPA 1000 nM [14]: also showed higher cleavage ratios for mouse uPA than the sequence shown as SEQ ID NO: 3
cleavage ratio (PAR) on peptide array, mouse uPA 1000 nM [7]: also showed higher cleavage ratios for mouse uPA than the sequence shown as SEQ ID NO: 3
cleavage ratio (PAR) on peptide array, mouse uPA 1000 nM [15]: also showed higher cleavage ratios for mouse uPA than the sequence shown as SEQ ID NO: 3
cleavage ratio (PAR) on peptide array, mouse uPA 1000 nM [9]: also showed higher cleavage ratios for mouse uPA than the sequence shown as SEQ ID NO: 3
cleavage ratio (PAR) on peptide array, mouse uPA 1000 nM [11]: also showed higher cleavage ratios for mouse uPA than the sequence shown as SEQ ID NO: 3
